Targets include FcRn (human) (UniProt P55899); FcγRIIb/c (human) (UniProt P31994); FcγRIIIb (human) (UniProt O75015); FcγRIa (human) (UniProt P12314); FcγRIIIa (F) (human) (UniProt P08637); FcγRIIIa (V) (human) (UniProt P08637).
What all share (assay): SPR
(In general: SPR reads the build-up and loss of mass on a sensor chip optically.)

Sequence of UniProt P55899 (P55899 24-365, chain 1 of 2): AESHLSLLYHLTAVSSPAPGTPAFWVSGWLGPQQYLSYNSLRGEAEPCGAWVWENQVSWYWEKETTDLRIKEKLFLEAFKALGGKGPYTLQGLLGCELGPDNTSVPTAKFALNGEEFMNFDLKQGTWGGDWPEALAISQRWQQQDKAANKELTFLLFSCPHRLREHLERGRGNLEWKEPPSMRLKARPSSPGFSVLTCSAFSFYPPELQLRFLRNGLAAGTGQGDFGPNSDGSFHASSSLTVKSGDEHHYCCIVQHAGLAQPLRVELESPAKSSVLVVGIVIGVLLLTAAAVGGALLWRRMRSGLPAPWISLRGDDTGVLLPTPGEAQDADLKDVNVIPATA
Sequence of UniProt P55899 (P61769 21-119, chain 2 of 2, further chain): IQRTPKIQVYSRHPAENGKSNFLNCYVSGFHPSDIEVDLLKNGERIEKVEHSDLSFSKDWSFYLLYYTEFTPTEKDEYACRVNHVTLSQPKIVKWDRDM
Sequence of UniProt P31994 (P31994 43-310): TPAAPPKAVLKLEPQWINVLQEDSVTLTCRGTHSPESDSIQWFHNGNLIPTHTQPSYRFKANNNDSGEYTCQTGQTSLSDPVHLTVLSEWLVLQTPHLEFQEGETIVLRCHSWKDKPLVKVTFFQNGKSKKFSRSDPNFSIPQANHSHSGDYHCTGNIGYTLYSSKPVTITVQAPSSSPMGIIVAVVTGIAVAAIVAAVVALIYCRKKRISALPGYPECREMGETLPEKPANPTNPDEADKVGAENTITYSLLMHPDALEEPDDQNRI
Sequence of UniProt P12314 (P12314 16-374): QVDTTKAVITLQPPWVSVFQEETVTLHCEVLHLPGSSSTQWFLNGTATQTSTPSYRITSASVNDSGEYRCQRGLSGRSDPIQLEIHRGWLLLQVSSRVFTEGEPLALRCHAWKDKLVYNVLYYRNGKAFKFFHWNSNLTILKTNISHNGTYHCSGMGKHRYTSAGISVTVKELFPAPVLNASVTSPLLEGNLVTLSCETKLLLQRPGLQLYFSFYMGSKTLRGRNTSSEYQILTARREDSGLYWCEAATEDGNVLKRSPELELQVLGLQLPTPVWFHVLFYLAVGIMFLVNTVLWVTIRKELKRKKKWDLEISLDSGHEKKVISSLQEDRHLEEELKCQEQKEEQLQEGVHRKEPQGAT
Sequence of UniProt O75015 (O75015 17-200): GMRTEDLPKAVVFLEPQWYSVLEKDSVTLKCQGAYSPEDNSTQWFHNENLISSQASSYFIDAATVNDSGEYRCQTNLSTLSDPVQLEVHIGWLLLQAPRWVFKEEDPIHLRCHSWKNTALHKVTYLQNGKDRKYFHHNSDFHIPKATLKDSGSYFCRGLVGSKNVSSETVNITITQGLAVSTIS

With “CN-rituximab (MabThera, sourced in China but manufactured in Europe) (antibody)”, the figures for the relative binding activity (KD ratio to a reference), mean of batches with FcRn (human) and with FcγRIIb/c (human) were 131% and 99%, respectively.
Regarding “EU-rituximab (MabThera, sourced and manufactured in Europe) (antibody)”, the values for the relative binding activity (KD ratio to a reference), mean of batches in the experiment with FcRn (human), with FcγRIIIb (human) and with FcγRIa (human) were 121%, 90% and 118%, respectively.
Regarding HLX01 (antibody), the relative binding activity (KD ratio to a reference), mean of batches was 113% with FcRn (human); 98% with FcγRIIIa (F) (human); 95% with FcγRIIIa (V) (human); 90% in the experiment with FcγRIIb/c (human); 103% in the experiment with FcγRIa (human).

For the origin of these results see paper PMC6512903.
